Fold gain in affinity against the parent TAD data for 2 substances are collected here from PMC7959569.

The test addresses Med25 AcID, Med25(394-543)-His6 (UniProt Q71SY5). Briefly: stopped-flow fluorescence transient kinetics.

Sequence of Med25 AcID, Med25(394-543)-His6 (Q71SY5 394-543): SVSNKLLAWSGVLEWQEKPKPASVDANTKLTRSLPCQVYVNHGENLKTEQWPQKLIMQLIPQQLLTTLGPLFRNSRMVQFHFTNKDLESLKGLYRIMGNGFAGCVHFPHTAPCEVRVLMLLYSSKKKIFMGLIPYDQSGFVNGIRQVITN

Regarding “ETV4^∆Nt TAD with 4-DMN on the N terminus (from UniProt P43268 49-484) (peptide)”, the fold gain in affinity against the parent TAD was 1.7 fold. The value for “ETV1^∆Nt TAD with 4-DMN on the N terminus (from UniProt P50549 42-477) (peptide)” was 1.7 fold.
